Assay: yeast display, Sf9 membrane polyspecificity reagent, FACS + sequencing; frameworks hold sequencing errors
Outline: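 Using colony PCR, genes from sorted yeast display clones were amplified, then sequenced on MiSeq at 2 × 250 and filtered by CDR length. The clones had been stained with 10% biotinylated, detergent-solubilized Sf9 membrane reagent for 1 hour at 4 °C and sorted by FACS into low and high (top ~1%) gates on anti-HA and streptavidin fluorescence. Polyreactivity labels come from the gate of origin.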

Sequence | polyreactivity (PSR sort gate)
AVQLVESGGGLVQAGGSLRLSCAASGSIFPWYTMGWYRQAPGKERELVASITKSGARTYYADSVKGRFTISRDNAKNTVYLQMNSLKPEDTAVYYCAAVYPVWKYHYAYWGQGTQVTVSS | high polyreactivity
EDELVESGGGIVQAGGSLRLSCAATGSIIVVNAMVWYRQAPRKERELVAAISRGGITNYADSVKGRFTISRDNAKNTVYLQMNSLKPEDTAVYYCNARGSRWVKPERDYWGQGTQVTVSS | low polyreactivity
EEELVESGGGLVQAGGSLRLSCAASGRTFARNAMGWYRQAPGKERELVAGINFSGGNTYYADSVKGRFTISRDNAKNTVYLQMNSLKPEDTEVYYCAPRRYWEGDYWGQGTQVTVSS | low polyreactivity
EEELVESGGGLVQAGGSLRLSCAASGRTYPNTMGWYRQAPGKERELVAAITTSGTSTRYADSVKGRFTISRDNAKNTVYLQMNSLKPEDTAVYYCATRYSGKTYHYNYWGQGTQVTVSS | high polyreactivity
EEELVESGGGLVQAGGSLRLSCAASGSTFLVYAMGWYRQAPGKERELVAVITYSTVRTYYADSVKGRFTISRDNAKNTVYLQMNSLKPEDTAVYYCNADKEYAVLGQGMDYWGQGTQVSVSS | low polyreactivity
EEELVESGGGLVQAGGSLSLICAASGLTFYIYAMGWYRPAPGKERELVAAITTSGDSTYYADSVKGRFTISRDNAKNTVYLLLNSLKPEDTAVYYGAAAVWHYGRPGYLDSGYDYWGQGTQVSVSS | low polyreactivity
EVHLVESGGCLVQPRGSLRLSCAASGYNYIRYRMGSYRQAPGKVREFVAAISGGSSTNYADSVKGRFTISRDNSKNTVYLQMNSLRAEDTAVYYCAAYKIDSDPRVYWGQGTQVTVSS | low polyreactivity
EVQLQESGGGLVQAGGSLRLSCAASGYTYNEYVMGWYRQATGKERELVAAISGSGGSTYYADSVKGRFTISRDNAKNTVYLQMNSLKPEDTAVYYCAARGYNSRGYDMDYWGQGTQVTVSS | high polyreactivity
EVQLVESGGGLVQPGGSLRLSCEASGYIYSRYRMGWYRQAPGKAREFVAAISGGSSTNYADSVKGRFTISRDNSKNTVYLQMNSLRAEDTAVYYCAAYKIDSDPRVYWGQGTQVTVSS | low polyreactivity
GSTIYADSVKGRFTISRDNAKNTVYLQMNSLKPEDTAVYYCNKDDRNDRTIPGYDPEYDYWGQGTQVTVSS | low polyreactivity
HAQLQESGGGLVQAGGSLRRSCAASGSIFRFSGMGWYRRAPGKERELVASIGFGSITYYADRVKGRFTISRDHANNTVYLQMNSLKPEDTAVYYCAVQVQDESWLDYWGQGTQVTVSC | low polyreactivity
HDQLVESGGGFVQAGGSLRLICAASGSTFIGYAMGWYRQAPGKERELVADISWSGGRTYYADSVKGRFTISRDNEKNTVYLQMNSLKPEDTAVYYCAARGSGHTRSYYWGQGTQVTVSS | high polyreactivity
HDQLVESGGGLVQAGGSLRLTCAASGFIFGAYTMGWYRQAPGKERELVAAISWSGDSTYYADSVKGRFTISRDNAKNTVYLQMNSLKPEDTAVYYCAAVWYWSGFDYWGQGTQVTVSS | high polyreactivity
HEHLQESRGGLVQAGGSLRLSCAASGSIFQATYMGWYRQAPRKEREFVASITYGSITNYADSVKGRFTIGRDNATDTLYLQMNSLKQEDTAVYYWAVDRHYIPAFHYWGQGTQVTVSS | low polyreactivity
HFQLVESGGGIVQAGGSLRLSCAASGRTCFYNAMGWYRQAPGKERELVAAISWSGGSTYYADSVKGRFTISRDNAKNPVSLQMNSLNREDTAVYYCNAAYGRRYDYWGQGTQVTVSS | high polyreactivity
HGQLVESGGGLVQAGGSLRLSCAASGVTFSYYAMGWYRQGPGKDRELVAAITSSAGSTYYADSVKGRFTISRDNAKNTVYLQMNSLKPEDSALYYCNAVYSKLNGGYDYWGQGTQVTVSS | low polyreactivity
HLQLVESGGGLVQAGGSLRLSCAPSGRILRDYDMGWYRQAPGKERELVAAINWSDGSTYYADSVKGRFTISRDNAKNTVYLQMNSLKPDDTAVFYCAASRWRPLERGTSWLHDYWGQGTQVTVSS | low polyreactivity
HVPLVESGGGLVQAGGSLRLSCAASGSIFVWYVMGWYRQAPGKEWELVAAITWSAARTYYADSVKGRFTISRDNAKITVYLQMNSLKPEDTAVYYGAADPVSYQPSSRIFDYWGQATQVTVSS | low polyreactivity
HVQHVESAVGLVQAGGRLRLSCAASGIIFRGNVMGWYIPAPGKERELVAAISGSGGRTYYADSVKGRFTISRDNAKNTVYLLMNSLKPEDTAVYYCAVSGTRTIWGISYRMYYWGQGTQVTVSS | high polyreactivity
HVQLEESGGGEVQAGGSLRLTCAASGLIYTTYAMGWYRPAPGTERELVAAISRRGSRTYYADSVKGRFTISRDNAKNTVYLQMNSLNPEDTAVYYCNALTGSFKTDSFDYWGQGTQVTVSS | high polyreactivity
HVQLGESGGGLVQAGGSLRLSCAASGRNFERNVMGWYRPATGKERELVAGIRSDGDRTYYADSVKGRFTISRDNSKNTVYLQLKSLKPEDTAVYYCAVVWYDKGRQTRYNYWGQGTQVTVSS | high polyreactivity
HVQLKESGGGLVQAGGSLRLSCAASGSIFKVVDMGLYRKAPAKEREFVANIGEGCNTYYADSVKGRFTISRDNAKNTVYLQMNSLKPEDTAVYFYAFVLGTSYRYTYWGQGTLVTVSS | low polyreactivity

Sequence | polyreactivity (PSR sort gate)
HVQLLESGGGLLQAGGSLRLSCMASGSILRDRMSWYLQAPGKEHELVATIYDGGITYYADSMKGRFTISRDNAKNTVYLQMNSLRPEDTAVYYCGASFEGYRYHVYCGQGTQVTVSS | low polyreactivity
HVQLQERAAWCRRAGSLRQSCAASGNISHYYFMGWYRQAPGKERELVAAIAPGSNTYYADSVKGRFTISRDNAKNTVYLQMNSLKPEDTAVCFCAANSTQYTWFDYWGQGTQVPVSS | low polyreactivity
HVQLQESAGGLVQAGGSLRLSCAASGNISYSRNMGWYRQAPGKERELVAAIDRGAITYYADSVKGRFTISRDNATNTVYLQIYSLKPEDTAVYYCAAEYHDRWDHRYWGQGTHVTVSS | high polyreactivity
HVQLQESGGGLEQAGGSLRLSCAASGYISDIGTMGWYRQAPGKEREFVANIVVGSTTNYADSVKGRFTISRDNAKNTVYLQPESGRYRGVLLRGWLLAVGKFTYWGQGTQETVSS | low polyreactivity
HVQLQESGGGLVQAGGSLRLSCAASGYISHADEMGWYRQAPGKEHELVASISNGGSTNYADSVKGRFTISRDNAKNTVYLQMNSLKSEVTAVYYCAAWTGQVDFHYYWGQGTQVSVSS | low polyreactivity
HVQLQESGGGLVQAGGSLRLSCGASGNISYSRSMGCYRQAPGKERELVAAIDRGAITYYADSVKGRFTISRDNAKNTVYLQIYSLKPEDTAVYYCAAVYHDRWDHRYWGQGTQVTVCS | high polyreactivity
HVQLQESGGGLVQARGSLRLSCAATGSIFYRLKMGWHRQAPGKERELVATIDPGSNTYYADSVKGSFTISRDNAKKTVYPQMYSLKPEDTAVYYCAVSAHWTIHYYYWGEGTQVTVSS | high polyreactivity
HVQLVDSGGGLVQAGGSLRLSCAASGSIFRYYTMGWYRQAPGKERELVAAISWSGGRTYYAHSVKGRFTISRDKAKNTVYLQMNSLKPEDTAVYYCAAVRPYYYPLPTVPNLPYDYWGQGTQVTVSS | high polyreactivity
HVQLVEAGGGLVQAGGSLRLSCAASGSTLQYYAMGWYRQAPGKERELVAAITSTGSRTYYADSVKGRFTISRDNAKNTVYLLMNSLKPADTAVYYCAADIYDGEYDYWGQGTQVTVSS | high polyreactivity
HVQLVESAGGLFQEGGSLRVSCAASGGTLNTYAMGRYRQAPGKDREFVSAITTSGASTYYADSVKGRFTISRDNAKNTVYLQMNSLKPEDSAVYYCYCDYWGQGTQVTVSS | low polyreactivity
HVQLVESAGGLVQAGGSLRLSCAASGSILPRYAKGWYRQAPGKERELVAAISWSGGNTYYADSVKGRFTISRDNAKNTVYFQMNSLTPEDTAVSYSAARQYDWVIQGSRVRPVHYDYWGQGTQVNVSS | high polyreactivity
HVQLVESGAGLVQAGGSLRLSCAASGSTLRYYAMGWYRQAPGKERELVAAISTVGSTYYADSVKCRFTISRDNAKNTVNLQMNILKPEDTAVYYCAAEPWANTPGDAGSPFDYWGQGTQVTVSS | low polyreactivity
HVQLVESGGCLFQAGGSLRLSCAASGRIFPGYAMGWYRQAPGKERELFAAINTSGGRTYYADSVKGRFTISGENAKNTVYLQMNSLKPEDTAVSYCAAVYRSRYDYWGQGTQVTVSS | high polyreactivity
HVQLVESGGGLFQAGGRLRVSCAASGNTIWGNAMGGSRQAPGKEREVVAAITGGGDTNYADSVKGRFTISRDNAKNTVYLQMNSLKPEDTAVYYCAADSSEWLLKDDYWGQGTQVTVSS | low polyreactivity
HVQLVESGGGLVQAGGRLRLSCAASGRNFVENAIGWYRQAPGKEWEFVAAISGGGSTDYADSVKGRFTISRDNAKNTVYLQMNSLKPEDTAVYYCNARQVFTTAGREMDYWGQGTQVTVSS | low polyreactivity
HVQLVESGGGLVQAGGSHRLICASSGFTIYYAIAWYRQAPGKESELVASISANGGSTYYADSVKGRFTISRDNAKNTVYLQMNSLKPEDTAVYYCAARGLSGQRRYYWGQGTQVTVSS | high polyreactivity
HVQLVESGGGLVQAGGSLRIICAASVRIFYLYAMGWYRRAPGKERELVATINSGGSTKYADSVKGRFTISRDNAKNSVYLQRNSLKPEDTAVYYCNAKRWKDYYPYQSWKYGYWGQGTQVTVSS | high polyreactivity
HVQLVESGGGLVQAGGSLRISCAASGRTFYSYVMGWYRQAPGKQRQLVAAISSGGGRTYYADSVKGRFTISRDNAKHTVYLQMNSLKPEDTAVYYCNAVTRGTRWGLPYEYWGQGTQVTVSS | high polyreactivity
HVQLVESGGGLVQAGGSLRLICAASVRIFADNAMGWYRQAPGKERELSAAISESGGSTYYADSVKGRFTISRDNAKNTVYLEMNSLKPEDTAVYYCAATAEVHRAEPYDYWGQGTQVTVSS | low polyreactivity
HVQLVESGGGLVQAGGSLRLSCAASGFIFRKYAMGWYRQAPGKERELVAAISGRADSTYYADSVKGRFTISRDNAKNTVYLEMISLKPEDTAVYYCAADWLSKIGKGYDYWGQGTQVTVSS | high polyreactivity
HVQLVESGGGLVQAGGSLRLSCAASGFSFDPYAMGWYRQAPGKERELVAAISDGGSTNYPDSVKGRFTISRDNAKNTVYLQRNSLKPEDTAVYYCAVEYWYVRGTFDDWGQGTQVTVSS | low polyreactivity

Source: the nanobody polyreactivity screen of Harvey et al. (2022)
